We go through 5 molecules from article PMC5282575, “The crystal structure of the Sgt1-Skp1 complex: the link between Hsp90 and both SCF E3 ubiquitin ligases and kinetochores” (Scientific Reports, 2017).

B3: full-length Sgt1 (untagged), Saccharomyces cerevisiae (natural protein, S. cerevisiae, UniProt Q08446 1-395, looked up)
chain: MPVEKDLKTAYKALYDEKEPLKALHLYDEILKGSPTNLTALIFKAACLEKLYFGFSDWHSDATMENAKELLDKALMTAEGRGDRSKIGLVNFRYFVHFFNIKDYELAQSYFKKAKNLGYVDDTLPLWEDRLETKLNKKNKKQKDSTNKHTIKPVESIENRGDNNSSHSPISPLKIETAPQESPKFKIDWYQSSTSVTISLFTVNLPESKEQVNIYISPNDRRTLSISYQVPKSGSEFQYNAKLSHEVDPKAVSLKIFPKKLEITLSKIDSTQWKKLEEDILTESSRLSDEGKNSDSATRLLSAETASKERLSYPSSSKKKIDWSKLDIDEEADEEAGSADSFFQKLYAGADPDTKRAMMKSFIESNGTALSTDWEDVSKGTVKTSPPEGMEPKHW
notes: Sgt1, S. cerevisiae, full length, untagged, cloned in MCSII of pColA-Duet; Dimer at working concentrations by SV-AUC and native MS, with minor monomer and trimer; also called Sgt1 FL; wt; source: E. coli BL21 Star (DE3), purified (cation exchange, gel filtration)

The target of data set [1] is full-length Sgt1 and Sgt1TPR (S. cerevisiae). Description: ITC; VP-ITC, 25 °C, 20 mM HEPES pH 7.0, 150 mM NaCl, 1 mM β-mercaptoethanol; 130-160 μM Skp1 injected into 6-13 μM Sgt1 dimer; single site model assuming dimeric Sgt1. A general note: Isothermal titration calorimetry measures the heat released or taken up as one component is titrated into another.
Data set [2] deals with the molecule itself. Description: AUC; sedimentation velocity, 20 °C, absorbance at 280 nm, continuous c(s) fit; Sgt1 at 4.5-22.3 μM monomer (His6-tagged WT and H59A at 11.2 μM).
In data set [3] the target is B3. Description: ITC; VP-ITC, 25 °C, 20 mM HEPES pH 7.0, 150 mM NaCl, 1 mM β-mercaptoethanol; 130-160 μM Skp1 injected into 6-13 μM Sgt1 dimer; single site model assuming dimeric Sgt1. Particulars: both partners purified.
For data set [4], the target named is Skp1∆1 (Skp1 with residues 65-74 deleted) (S. cerevisiae, UniProt P52286 1-194, residues 65–74 are deleted). The data set is described as follows: ITC.
Data set [5] concerns the molecule itself. Description: native MS; nano-electrospray, samples exchanged into 150 mM ammonium acetate pH 7; 4.5, 11.2 and 22.3 μM; spectra deconvoluted with Amphitrite.

One may read the Kd as the constant that tells how readily two partners part at equilibrium. A low value points to a tighter complex. Consider “full-length Skp1 (untagged), Saccharomyces cerevisiae (from UniProt P52286 1-194) (natural protein)”, for which the Kd in data set [1] fell in the range of 0.6 to 0.7 µM.

B1: Sgt1 TPR domain construct (Sgt1TPR, residues 1-150) (domain or fragment, S. cerevisiae, UniProt Q08446 1-150, looked up)
chain: MPVEKDLKTAYKALYDEKEPLKALHLYDEILKGSPTNLTALIFKAACLEKLYFGFSDWHSDATMENAKELLDKALMTAEGRGDRSKIGLVNFRYFVHFFNIKDYELAQSYFKKAKNLGYVDDTLPLWEDRLETKLNKKNKKQKDSTNKHT
notes: Sgt1, S. cerevisiae, TPR domain, residues 1-150, untagged, cloned in MCSII of pColA-Duet; Treated as a dimer in the ITC fit; forms concentration-dependent trimers; three copies in the asymmetric unit; SeMet-Sgt1TPR was used for the SAD data set; source: E. coli T7 Express LysY/Iq, purified (cation exchange, gel filtration)
What is called stoichiometry N is the number of molecules, sites or subunits per partner or assembly. Turning to B1, the “stoichiometry N” value in data set [2] was 3.

B2: Skp1∆1 (Skp1 with residues 65-74 deleted) (natural protein, S. cerevisiae, UniProt P52286 1-194, looked up)
chain: MVTSNVVLVSGEGERFTVDKKIAERSLLLKNYLNDMHDSNLQNNSDSESDSDSETNHKSKDNNNIVMPVPNVRSSVLQKVIEWAEHHRDSNFPDEDDDDSRKSAPVDSWDREFLKVDQEMLYEIILAANYLNIKPLLDAGCKVVAEMIRGRSPEEIRRTFNIVNDFTPEEEAAIRRENEWAEDR
notes: Skp1, S. cerevisiae, in the context of the full-length protein; the LCR (36-64) is retained, residues 65-74 are deleted; also called Skp1Δ1; Skp1d1; source: E. coli, purified (anion exchange, gel filtration)
Regarding B2, in data set [3], the binding result is reported as “binds”.

Take B3: the Kd in data set [4] came out at 3.9 µM. The “stoichiometry N” value in data set [2] worked out at 2.

B4: His6-tagged full-length Sgt1 D61R (natural protein, S. cerevisiae, UniProt Q08446 1-395, looked up)
chain: MPVEKDLKTAYKALYDEKEPLKALHLYDEILKGSPTNLTALIFKAACLEKLYFGFSDWHSRATMENAKELLDKALMTAEGRGDRSKIGLVNFRYFVHFFNIKDYELAQSYFKKAKNLGYVDDTLPLWEDRLETKLNKKNKKQKDSTNKHTIKPVESIENRGDNNSSHSPISPLKIETAPQESPKFKIDWYQSSTSVTISLFTVNLPESKEQVNIYISPNDRRTLSISYQVPKSGSEFQYNAKLSHEVDPKAVSLKIFPKKLEITLSKIDSTQWKKLEEDILTESSRLSDEGKNSDSATRLLSAETASKERLSYPSSSKKKIDWSKLDIDEEADEEAGSADSFFQKLYAGADPDTKRAMMKSFIESNGTALSTDWEDVSKGTVKTSPPEGMEPKHW
notes: Sgt1, S. cerevisiae, full length, in pET28a, Asp61 to Arg; source: E. coli T7 Express LysY/Iq, purified (HisTrap FF, gel filtration); not shown: His6, N-terminal, kept
Turning to B4, the “stoichiometry N” value in data set [5] came out at 2.
